The nanobody polyreactivity screen of Harvey et al. (2022)

Assay: yeast display, Sf9 membrane polyspecificity reagent, FACS + sequencing; frameworks hold sequencing errors
In short: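 Using colony PCR, genes from sorted yeast display clones were amplified, then sequenced on MiSeq at 2 × 250 and filtered by CDR length. The clones had been stained with 10% biotinylated, detergent-solubilized Sf9 membrane reagent for 1 hour at 4 °C and sorted by FACS into low and high (top ~1%) gates on anti-HA and streptavidin fluorescence. Polyreactivity labels come from the gate of origin.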

Sequence	polyreactivity (PSR sort gate)
QVLLVESGGALVQAGGSLRLSCAASGYIFRFYTLRGYRQAPGKERELVAAISAGGSTNSADSVKGRFTISRDNAKNTVYLQMNSLKPEDTAVEYCAARYYSRYYWGQGTQVTVSS	low polyreactivity
QVLLVESGGGLVQAGGSLRLSCAASGAIFRGYVMGWYSQAPGKERELVAAISYSGGATYYADSVKGRFTLSRDNAKNTVYVQMNSLKPEDTAVYYCAAYRYRYPYRLYDYWGQGTQGTVSS	high polyreactivity
QVLLVESGGGLVQAGGSLRLSCAASGRIFDDYAMGWYRQAPGKESELVAAITSGGRTYYADSVKGRFTISRDNAKNTVYLKMHSLKPDDTAVYYCAAQYGWFYEFVYWGQGTPVTVSS	high polyreactivity
QVLLVESGGGLVQAGGSLRLSCAATGSTFIRNAMGWYSQAPGKERELVAVISSGGSTYYADSVKGRFTISREIAKNTVYLQMNSLKPEDTAVYYCPAGDPQKEDYWGQGTQVTVSS	low polyreactivity
QVLLVESGGGLVQAGGSLRVSCAASGRTFGGYGMGWYRQAPGKDRELVASISFSGGAGTYYADSVKGRFTISRDNATTPVYLQMNSLKPEDTAVYYCAKRYVTPTYRRYSWGQGTQETVSS	high polyreactivity
QVNLVESGGGLVLAGGSLRLSCAASGRIYRRNTMGWYRPAPGKERELVAAITSSGGSTYADSVKGRFTISRDNAKNTVYLQMNSLKPEDTAVYYCDTYVAYHRGYRTYDHWGQGTQVTVSS	low polyreactivity
QVNLVESGGGLVLAGGSLRLSCAASGVTYGNNAMGWYRQAPGKEREFVATISRRGGSTYYADSVMGRFTISRDNAKNTVYLQMNRLKPEDTAVYYCDVDRAGIKFAAGYDYWGQGTQVTVSS	high polyreactivity
QVPHVESGGGLVQAGGSLRLSSAASGFIHKSYTMGWYRQAPGKERELVAAISRSGASKYYAYSVKGRFTISRDNAKNTVYLQMNSLKPEDTAVYYCNRRRHNIGTGEYNYWGQGTQVTVSS	high polyreactivity
QVPLVESGGGLVQAGGSLRLSCAASGFIFYANAMGWYRQAPGKERELVAAISWDGGRTYYADSVKGRFTISRDNAKNTVYLQMNSLKPDDTAVYSCNALATDLDYWGQGTQVTVSS	low polyreactivity
QVPLVESGGGLVQAGGSLRLSCAASGSIFQLYAMGWYRQAPGKEREFVAAITRSGGRTYYADSVKGRFTISRDNAKNTVYIQMNSLKPEDTAVYYCAADWVRNVYYRGYDYWGQGPQVTVSS	high polyreactivity
QVPLVESGGGLVQAGGSLRLSCAASGSIFWTYTIGWYRKAPGKERELVAAITSSGSTNFADSVKGRFTISRDNAKKTVYLQMNSLKPADTAVYYCAADPEYRGYQRYDYWGQGTQVTVSS	low polyreactivity
QVPLVESGGGLVQAGGSLRLSCAASGSTFSGYAMGWYRQAPGKERELVATITSTGSTNYADSVKGRFTISRDNAKNTVYLQMNSLKPEDTAVYYCNARYLFVERYFLHYASVRYDYWGQGTQVTVST	low polyreactivity
QVPLVESGGGLVQAGGSLRLSCAASGSTLAANAMGWYRQAPGKERELVAAIDGGGSTYYADSVKGRFTISRDNAKNTVYLQMNILKPDDTAVYYCATPYVWTITQKKYDYWGQGTQVTVSS	low polyreactivity
QVPLVESGGGLVQAGGSLRLSCDASGSTFFPNAMGWYRQAPGKEREFVAAISWSGGRTYYADSVKGRFTISRDNAKNTVYLQMNSLKPEDTAVYYCAARLYTVRYGYWGQGTQVTVSS	high polyreactivity
QVPLVESGGGLVQAGRSLRLSCAASGITFRHNTMGWYRQAPGKERELVSTNYADSVKGRFTFSRDNAKNTVYLQMNSLKPEDTAVYYCNADGTFESDYWGQGTQVTVSS	low polyreactivity
QVPLVESGRGLVQAGGSLRLSCAASGFIFKYYAMGWYRQAPGKEGELVASISSSGSSTYYADSVKGRFTISRDNAKNTVYLQMNSLKAEDTAVNYCNTVTYGPSAYDYLGQGTQVTVSS	low polyreactivity
QVPMQESGGGLVQADGRLSLSCAASGSIFGYYYMGWYRQAPGKDRELVATINICGITNYADSVKGRFTISRDNAKNTVYLQMNSLKPDATAVYYCAADEYAQRDLGYWGQGPQVTVSS	low polyreactivity
QVQHEESGGGIVQAGGSLRLSSAASGRTFKYYDMGWFRQALGKERELVATISSSDSTNYADSVKGRFTISRDNAKNTVYLQLNSLKPEDTAVYYCNADFKLIYVFDYWGQGSQVTVSS	high polyreactivity
QVQHEESGGGLFQAGGSLRLICAASGSIFDYYAMGWYRQAPGKERELVSTYYADSVKVRFTISRDNAKNTVYLQLNSLKPEDTAVYFCAKDRGTTGIPDGPAASLYGYVYWGQGTQVTVSS	low polyreactivity
QVQHEESGGGLVQAGGSLRLSCAASGLILFYNDMGWYRQAPGNERELVSVITSGGRTYYADSVKGRFTISRDIAKNTVYLQMNSLKPEDTAVYYCAATYGHPTTYCEGWRYGYWGQGTQVTVSS	low polyreactivity
QVQHEESGGGLVQAGGSLRLSCAASGRIFPVNAMGWSRKAPGKERELLAAITRNGGSTYYADSVKGRFTISRDNAKNTVYLQMNSLKPEDTAVSYCAVRVVYGPAWAKMYYWGQGTQVTVSS	high polyreactivity
QVQHEESGGGLVQAGGSLRLSCAASGSIFRGNAMGWYRQAPGNERELVAAITRSGGRTYYADSVKGRFTISRDNAKNTVYLQMNSLKPEDTAVYYCAADYPYGSPTHFDYWGPGTQVTVSS	high polyreactivity

Sequence	polyreactivity (PSR sort gate)
QVQHEESGGGLVQAGGSLRLSCAASGSIFTPTPKGCYRQAPGKERELVAAISSSSDRTYYADSVKGRFTISRDNAKNTVYLEMNSLKPEDTAVYFCAAYAQKRYYWGQGTQVNVSS	high polyreactivity
QVQHVDSAGGIVQAGGILRLSCAASGPTFGKYAMGWYRQQHGKERELVATITRTARTNYADSVKGRFTSSRDNAKNTVYLQMNSRKPEDTAVYYCDAPWRYTFPPQVYGQSYGYWGQGTQVTVSS	high polyreactivity
QVQHVDSGAGLVQAGGSLRLRCSASGLILKDYAMGWSIQPPGKERELVAAISTSAGTTYYADSVKGRFTISRDNAKNTVYLQMKSQKPEETAVYYCAAGYLPYYIRYYHPVTVDYDYWGQGTQVTVSS	low polyreactivity
QVQHVDSGGGLVQAGGSLRLSCAASGSTFSLNAMGWYRQAPGKERELVAAISSGDSTNYADSVKGRFTISRDNAKNTVYLQMNSVKPEDTAVYYCAVEVYYTGFYYSPYAYDYWGQGTQVTVSS	low polyreactivity
QVQHVESARGLVQAGGSLRLSCAASGRTFFSYAMGGYRQAPGKERELVAAITSGGTTYYADSVKGRFTISRDNAKNTVYLQMNSLKPEDTAVYYCAVLGLGQKRGRAFLFPYDYWGQGTQVTVSS	high polyreactivity
QVQHVESCGGLVQAGGSLRLSCAASGFTFASNVMGWYRQAPGKERDLVAAITSGASTNYADSVKGRFTISRDNAKNTFYLQMNSLKPEDTAVYYCAAGRQWYVFYEFDYWGQGTQVTVSS	high polyreactivity
QVQHVESCGGLVQAGGSLRLSCADSGRIFGDYVMGWYRQAPGKERELVASIDTSGGSTYDADSVKGGFTISRDIAKNTVYLQMNSVKPEDSAVYYCAAERKYFVFVYYQGWYDYWGQGTQVTVSS	low polyreactivity
QVQHVESCGGLVQAGGSLRLSCDASGSTFYYYAMGWSRQGPGKERELVAAISLGGGSTYYADSVKGRFTISRDNAKNTVYLHMNSLKPEDSAVYYCAARRVGGGFYTWRNPAYEYWGQGTQVTVSS	high polyreactivity
QVQHVESGAGLVQAGGSLRLSCAASGNTINFYAMGWYRQPPGKESELVASITSGGGTNYADSVKGRFTISRDNAKNTVYLQMNSLKPEDTAVYYCAAQFYDHFRYHFDWGQGTQVTVSS	low polyreactivity
QVQHVESGGALVQAGGSLRLSCADSGRTFIFYAMGWYRQAPGKETELVASTSSGGSTNYADSVKGRFTISRDNAKNTVYLQMNILKPEDTAVYYCATRQYLYYSRGYGYWGQGTKVTVSS	low polyreactivity
QVQHVESGGCLLQAGGSLRLSCAASGSIFEPYTMGWYRQAPGKERELVAAITGSGGSTFYADSVKGRFTISRDNAKNTVYLQMNSLKPEVTALYYCNAYAYPYTDVDYWVQGTQVTVSS	low polyreactivity
QVQHVESGGCLVQAGGSLRLSCAASGRIFRGYAMGWYRQAPGKERELVAAISSRGSTYYADSVKGRFTNSRDNAKNTVYLQMNSLKPEDTAVYYCAKSEYARLSGFRYRTGYNYWGQGTQVTVSS	high polyreactivity
QVQHVESGGCLVQAGGSRRLSCAASVSIFIPNAMGWSRQAHGKERELVAAISWSGASTYYADSVKRRFTISRDNAKNTVYLQMISLKPEDTAVYYCAAYYAYRRGYDYWGQGTQVTVSS	high polyreactivity
QVQHVESGGCLVQAGRSLRLSCAASGRTFFPYGMGWDRQAPAKEREFVATISWSGGSTHYADSVKGRFTISRDNAKYTVYLEMNSLKPEDTAVYFCAAGNSLYWYNSGNYWGQGTQVTVSS	low polyreactivity
QVQHVESGGGILQAGRSLRLICAASGRLYLSNVMAWNRQAPGTERQLVAAITGRGSSTYYADSVKGRFTISRDNAKNTVYLLINSLKPEDSAVYSCAKRLPYSSGYEYWGQGTQVTVSS	high polyreactivity
QVQHVESGGGIVQAGGSLRLSCAASGHIFFYYTMGWYRQAPGKERELVAGITIGGSTNYADSVKGRFTISRDNAKNTVYLQMNSLKPEDTAVYYCNVVKYVYIYSYWEYYYWGQGTQVTVSS	low polyreactivity
QVQHVESGGGIVQAGGSLRLSCAASGITFSRKAMGRYRQATGKERELVATITSGGSTNYADSVKGRFTISRDNAKNTVYLQMNRLKPEDTAVYYCNAVWNTFISGRSYDYWGQGTQVTVSS	low polyreactivity
QVQHVESGGGIVQAGGSLRLSCAASGSTFFGNGMGWYRQAPGKERELVAAISGGGSTHYADSVKGRFTSSRDNAKNTVYVQMNSLKPEDTAVYYCSPSRDTVGRGPIQRDYWGQGTQVTVSS	low polyreactivity
QVQHVESGGGLDQAGGSLRLSCAASGRIYCTNAMGWYRQAPGKESELVADITSGGSTNYADSVKGRFSISRDNAKNTVYLQMTSLKPEDTAVYYCAADVIGDLRWYRDEYWGQGTQVTVAS	low polyreactivity
QVQHVESGGGLDQAGGSLRLSCAASGRTFAPYAMGWYRQAPGKEREFVAGITWSSSSTYADSVKGRFTISRDNAKNTVYVQMNSLKPDDPAVYYCAARHAKGGNRHYYWGQGTQVTVSS	high polyreactivity
QVQHVESGGGLDQGRGSLSLSCAASARNLSSNVLGRYRQAPGNETEFVASITYSGSSTYYADSVKGRFTISRDYAKNTFYLQMNSLKPEDTAVYYCATRYGYSDGDYWGQGTQVTVSS	low polyreactivity
